Series [1] is described as follows: pH optimum profile of GCase activity. It counts as biochemical. The note with it: profile pH 4.4–7.2. As to the method: Vela and Imig were compared for kinetic properties as described. Briefly, the standard GCase activity assay contained final concentrations of 50 mM citrate/phosphate, pH 5.5, 0.25% TC, 0.25% TX, and 4 mM 4MU-Glc in 200 µl. The reactions were stopped after incubation (30–60 min, 37°C) using 0.9 M ethylenediamine, pH 11.0 (100 µl). Standard curves for 4-MU fluorescence yield were generated for each assay with Ex/Em 460/515 nm (Molecular Dynamics SpectraMax GeminXS spectrofluorometer). […] For the reversible competitive inhibitors, Ki was calculated from IC50 = Ki (1+ [I]/[Km]). The IC50 or Ki values for various inhibitors (dNM and its derivatives, CBE, CS, IFG, DNPFG) were determined using 4MU-Glc as substrate. Activities with the NBD-GC substrate were as described. Enzyme assays with saposin C (0–500 nM/0.5 µM BPS) and BPS (0–2 µM) were as described, [40]. Saposin C was expressed in E. coli and purified as described. […] Protease susceptibilities of the two GCases were evaluated by cathepsin D (1–2 µM) digestion in 25 mM sodium acetate, pH 4.8, 50 mM NaCl, 1.25 mM EDTA, 1.25 mM DTT using 200 ng of Vela or Imig at 37°C for 4 h. […] The amounts of intact enzyme were determined from density measurements on immunoblots and were compared to the initial amounts. […]

Series [2] can be described thus: Serum GCase activity, CRIM and CRIM-SA after i.v. bolus. The note with it: for Recovery of injected activity in serum: 60 U/kg bolus, peak 2 min, % ± SE.
The test system of a further series is cathepsin D. As to the kind of experiment: Protease susceptibility to cathepsin D digestion. It counts as biochemical. Conditions: for degradation by cathepsin D after 4 h: cathepsin D 1 µg/ml; for degradation by cathepsin D within 4 h: cathepsin D 2 µg/ml. On the procedure: Vela and Imig were compared for kinetic properties as described. Briefly, the standard GCase activity assay contained final concentrations of 50 mM citrate/phosphate, pH 5.5, 0.25% TC, 0.25% TX, and 4 mM 4MU-Glc in 200 µl. The reactions were stopped after incubation (30–60 min, 37°C) using 0.9 M ethylenediamine, pH 11.0 (100 µl). Standard curves for 4-MU fluorescence yield were generated for each assay with Ex/Em 460/515 nm (Molecular Dynamics SpectraMax GeminXS spectrofluorometer). […] For the reversible competitive inhibitors, Ki was calculated from IC50 = Ki (1+ [I]/[Km]). The IC50 or Ki values for various inhibitors (dNM and its derivatives, CBE, CS, IFG, DNPFG) were determined using 4MU-Glc as substrate. Activities with the NBD-GC substrate were as described. Enzyme assays with saposin C (0–500 nM/0.5 µM BPS) and BPS (0–2 µM) were as described, [40]. Saposin C was expressed in E. coli and purified as described. For thermostability assessments, equal amounts of Vela and Imig activities were added to 50 mM citrate/phosphate, pH 7.4, with or without human/mouse serum, and incubated for 0–240 min at 25 or 37°C. The pH optimum profiles were developed using 50 mM citrate/phosphate, pH 4.4–7.2. […] All assays were conducted in triplicate and repeated at least twice. The amounts of intact enzyme were determined from density measurements on immunoblots and were compared to the initial amounts. The ratios of intact enzyme with and without cathepsin D were used as indicators of the enzyme's proteolytic susceptibility.

A further series deals with 9 V/null mice. As to the kind of experiment: Injection-related deaths. Format: in vivo, mouse. The note with it: 60 U/kg once a week for 8 weeks. As to the method:
With additional injections, IgG positivity increased in all dosing groups and several mice died. With the 5 or 15 U/kg/wk doses only a few mice died, whereas with 60 U/kg/wk doses, 9/42 Vela-injected and 20/59 Imig-injected mice died following injections during the 4- to 8-wk period (Table 5). Prior to death, these mice became immobile and their lips/tails became cyanotic. Most mice died within 30 to 60 min post-injection. However, placing treated mice in an oxygen chamber for 20 to 30 min after injection led to the survival of most of the animals. The mice that succumbed were immediately dissected, and sera were analyzed for IgE titers and histology. […] Total serum IgE levels from these mice injected with Vela or Imig were 46.4 to 234.9 ng/ml (n = 3) or 115.8 to 239.6 ng/ml (n = 3), respectively (p = 0.3626). In comparison, saline-injected 9 V/null serum values were 6.8 to 8.8 ng/ml (n = 6) (Fig. 7B).
Mice were anesthetized with isoflurane.

The conditions of series [3]: mouse, in vivo.
For series [4] the following is noted: mouse, in vivo, iv.

Substitutions are numbered along the chain they refer to. Where two headings read alike, the source gives them in different places.

B1: velaglucerase alfa (protein)
chain: ARPCIPKSFGYSSVVCVCNATYCDSFDPPTFPALGTFSRYESTRSGRRMELSMGPIQANHTGTGLLLTLQPEQKFQKVKGFGGAMTDAAALNILALSPPAQNLLLKSYFSEEGIGYNIIRVPMASCDFSIRTYTYADTPDDFQLHNFSLPEEDTKLKIPLIHRALQLAQRPVSLLASPWTSPTWLKTNGAVNGKGSLKGQPGDIYHQTWARYFVKFLDAYAEHKLQFWAVTAENEPSAGLLSGYPFQCLGFTPEHQRDFIARDLGPTLANSTHHNVRLLMLDDQRLLLPHWAKVVLTDPEAAKYVHGIAVHWYLDFLAPAKATLGETHRLFPNTMLFASEACVGSKFWEQSVRLGSWDRGMQYSHSIITNLLYHVVGWTDWNLALNPEGGPNWVRNFVDSPIIVDITKDTFYKQPMFYHLGHFSKFIPEGSQRVGLVASQKNDLDAVALMHPDGSAVVVVLNRSSKDVPLTIKDPAVGFLETISPGYSIHTYLWRRQ
modifications: N-linked oligosaccharides with higher α-mannosyl content (predominant number of mannoses is 9)
In the case of B1, in series [1], the “pH of peak activity” value was 5.4–5.6. In addition, in series [2] (5-wk 9 V/null mice), the “Recovery of injected activity in serum” value was 63.06±4.62%. In series [2] (9 V/null mice, 60 U/kg i.v.), the “serum activity by 20 min post-injection” value is < 10 % of the 2-min values and the “t½ of clearance of GCase activity in serum” value is 8 to 11 min. In series [2] (20-wk 9 V/null mice), the “Recovery of injected activity in serum” value came out at 58.16±1.61%. For the same molecule, in series [2] (60 U/kg i.v.), the “catalytic value (CRIM-SA) of intact enzyme remaining in serum by 20 min” value is < 10 % of its original catalytic value. Also, the “t½ of GCase CRIM disappearance in serum” value in series [2] (both age groups, 60 U/kg i.v.) is approximately 13 min. In the series with cathepsin D, the “degradation by cathepsin D after 4 h” value is 72–76% and the “degradation by cathepsin D within 4 h” value was “completely degraded”. Also, in the series on 9 V/null mice (No-oxygen), the “Death (%) of total injected mice” value stood at 22.6% and the “Death, number of mice” value worked out at 7. In the series with 9 V/null mice (Oxygen chamber minimum 20 min), the “Death (%) of total injected mice” value was found to be 18.2% and the “Death, number of mice” value came out at 2. In addition, in the series with 9 V/null mice (Total number), the “Death (%) of total injected mice” value amounted to 21% and the “Death, number of mice” value came to 9.

B2: imiglucerase (protein)
chain: B1 chain with R495H
modifications: short N-linked oligosaccharide chains with ~3 exposed α-mannosyl residues
Turning to B2, the “pH of peak activity” value in series [1] is given as 5.4–5.6. Besides, in series [3], the “time liver activity remained at ≥WT level” value is on record as approximately 180 min. In series [3] (iv), the “decrease of spleen enzyme activity by 40 min” value was approximately 40%; the “enzyme localized to the liver interstitial cells” value was not below 80%; the “enzyme recovered in spleens and lungs” value is less than 5%; the “injected enzyme recovered from the liver” value is not below 60%. Further, in series [3] (iv), the “peak spleen activity lower than in 20-wk mice” value was 2- to 3 fold, the “t½ of CRIM disappearance in liver” value lay within 90 to 110 min, the “t½ of CRIM levels in spleen” value is recorded as approximately 60 min and the “t½ of GCase activity disappearance in liver” value was approximately 100 min. In series [3] (iv), the “t½ of GCase protein disappearance in spleen” value fell in the range of 60 to 90 min and the “t½ of activity disappearance in liver” value was “about 60 min”. Further, in series [4], the “serum activity by 20 min post-injection” value is recorded as < 10 % of the 2-min values, the “t½ of GCase CRIM disappearance in serum” value is recorded as approximately 13 min and the “t½ of clearance of GCase activity in serum” value lay in the range of 8 to 11 min. In addition, the “catalytic value (CRIM-SA) of intact enzyme remaining in serum by 20 min” value in series [4] (20 min) is given as < 10 % of its original catalytic value. Moreover, in the series with cathepsin D, the “degradation by cathepsin D after 4 h” value is recorded as 72–76% and the “degradation by cathepsin D within 4 h” value is “completely degraded”. In the series with 9 V/null mice (No-oxygen), the “Death (%) of total injected mice” value turned out to be 48.4% and the “Death, number of mice” value came to 15. Further, in the series on 9 V/null mice (Oxygen chamber minimum 20 min), the “Death (%) of total injected mice” value is reported as 17.9% and the “Death, number of mice” value was determined as 5. In the series on 9 V/null mice (Total number), the “Death (%) of total injected mice” value came to 34% and the “Death, number of mice” value came out at 20.

Values taken from PMC2873993, “Comparative Therapeutic Effects of Velaglucerase Alfa and Imiglucerase in a Gaucher Disease Mouse Model” (PLoS ONE, 2010).
